The values below come from patent US20250320468A1, “New Microbial Diamine Oxidase Derived from Yarrowia Lipolytica for the Degradation of Biogenic Amines” (UNIVERSITÄT HOHENHEIM, priority 2021, published 2025).

Data set [1] has as its target T1, Yarrowia lipolytica PO1f diamine oxidase-1 (DAO-1), wild type, SEQ ID NO: 1 (Yarrowia lipolytica, UniProt Q6CGT2).
T1 sequence (Q6CGT2 1-671): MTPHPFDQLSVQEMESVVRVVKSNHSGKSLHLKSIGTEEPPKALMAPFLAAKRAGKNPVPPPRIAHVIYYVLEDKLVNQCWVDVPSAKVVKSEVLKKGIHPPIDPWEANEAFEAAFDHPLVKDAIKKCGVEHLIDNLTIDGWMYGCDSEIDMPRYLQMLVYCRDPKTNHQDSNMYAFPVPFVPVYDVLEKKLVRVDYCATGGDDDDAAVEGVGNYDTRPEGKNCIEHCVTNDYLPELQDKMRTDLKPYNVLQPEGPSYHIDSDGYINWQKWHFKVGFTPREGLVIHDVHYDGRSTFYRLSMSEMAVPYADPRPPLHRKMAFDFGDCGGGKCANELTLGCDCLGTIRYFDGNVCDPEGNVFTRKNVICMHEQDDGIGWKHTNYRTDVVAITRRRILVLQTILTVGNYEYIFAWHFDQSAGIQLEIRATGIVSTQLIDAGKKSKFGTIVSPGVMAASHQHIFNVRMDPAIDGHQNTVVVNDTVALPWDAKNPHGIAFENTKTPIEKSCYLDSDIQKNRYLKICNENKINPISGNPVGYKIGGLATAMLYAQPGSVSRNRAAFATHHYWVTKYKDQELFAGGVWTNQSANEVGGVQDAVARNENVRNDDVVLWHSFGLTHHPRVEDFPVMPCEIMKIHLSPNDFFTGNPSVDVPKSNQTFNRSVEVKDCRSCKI
Nature of the data set: Michaelis-Menten kinetics of DAO-1 with histamine, DA-67 assay in PIPES buffer. Format: biochemical. The conditions noted are these: PIPES buffer (25 mM; pH 7.2), 37° C.
Method: DAO-1 activity determined with the DA-67 assay in PIPES buffer (25 mM; pH 7.2) at 37° C.
The DAO activity was determined using the colorimetric DA-67 enzyme assay, as known in the art. […] Subsequently, 24 μL (266 units/mL) of horseradish peroxidase (Grade I) were added. The reaction was started by the addition of 50 μL enzyme solution and incubated at 37° C. for 10 min and stirred at 750 rpm. The reaction was stopped by the addition of 50 μL sodium diethyldithiocarbamate (30 mM). After centrifugation (10,000 g for 3 min at 20° C.), the absorption was measured at 668 nm. […] Hydrogen peroxide (0.5 to 10 nmol/mL) was used for the calibration. The enzyme activity was calculated in nkat, whereby 1 nkat converts 1 nmol substrate/s at 37° C.
Kinetic investigations were done within the initial reaction velocity.
Data are presented as mean values with standard deviation. Enzyme kinetics were evaluated by nonlinear regression using the data analyzing software Sigmaplot 12.5 (Systat Software GmbH, Erkrath, Germany).

Data set [2] deals with T1, Yarrowia lipolytica PO1f diamine oxidase-1 (DAO-1), wild type, SEQ ID NO: 1.
Method: DAO-1 activity was determined with the DA-67 assay.
The DAO-1 activity was determined using a colorimetric DA-67 enzyme assay. […] Subsequently, 12 μL (266 units/mL) of horseradish peroxidase (Grade I) were added. The reaction was started by the addition of 25 μL DAO solution and incubated at 37° C. for 10 min and stirred at 750 rpm. The reaction was stopped by the addition of 50 μL sodium diethyldithiocarbamate (30 mM). After centrifugation (10,000 g for 3 min at 20° C.), the absorption was measured at 668 nm. […] Hydrogen peroxide (0.5 to 10 nmol/mL) was used for the calibration. The enzyme activity was calculated in nkat, whereby 1 nkat converts 1 nmol substrate/s at 37° C.
The DAO-1 activity was determined using the DA-67 assay. For unhydrolyzed conditions, the DA-67 reagent (50 μM) was prepared in SIF containing BSA, WPI, sodium-caseinate each at 35.6 g/L and 106.8 g/L sucrose (pH 6.8). […] The DAO-1 was desalted against SIF using PD MidiTrap G-25 columns.
For the hydrolyzed conditions, BSA, WPI, sodium-caseinate each at 16.67 g/L and 50 g/L sucrose were first incubated in SIF (with pancreatin) at 37° C. and 130 rpm for 90 min. […]
All experiments were done at least in duplicate and evaluated by determining the standard deviation with Excel. […] Enzyme kinetics were evaluated by nonlinear regression using the data analyzing software Sigmaplot 12.5 (Systat Software GmbH, Erkrath, Germany).
Data set [3] concerns porcine kidney diamine oxidase (DAO). The settings on record: cited from earlier work.
Data set [4] has as its system human diamine oxidase (DAO). The settings on record: cited from earlier work.
The test system of data set [5] is Arthrobacter crystallopoietes KAIT-B-007 histamine oxidase. The conditions noted are these: cited from earlier work.
In data set [6] the test system is Aspergillus niger amine oxidase. The conditions noted are these: cited from earlier work.
A short description of data set [7]: DAO activity of Y. lipolytica PO1f_axp_dao-2 cell extract versus wildtype extract. Format: biochemical. Here is the method:
(§1) The DAO activity was determined using the colorimetric DA-67 enzyme assay, as known in the art.
(§2) Y. lipolytica PO1f was identified as the owner of two putative DAOs using the BLAST program (https://blast.ncbi.nlm.nih.gov). […] Both genes were amplified from the genome of the Y. lipolytica strain PO1f and successfully integrated into the axp locus of the genome (integration efficiency of around 20%), resulting in the recombinant strains Y. lipolytica PO1f_axp_dao-1 and Y. lipolytica PO1f_axp_dao-2. The genes were integrated into the axp locus because it allowed efficient expression of the proteins desired with the chosen strategy for homologous recombinant integration, as known in the art. Gene expression was thereby conducted using the strong, constitutive promoter UAS1B8_TEF (136).

Data set [8] can be described thus: DAO activity of Y. lipolytica PO1f_axp_dao-2 cell extract versus wildtype extract, agmatine. It is filed as biochemical. Here is the method: as §1, §2
The conditions of data set [9]: kinetic studies from the art; cited from earlier work.
The conditions of data set [10]: cited from earlier work; for in vitro reduction of histamine: 150 mg/L (75 mg) histamine, 50 nkat (0.1 nkat/mL), 5 h.
The conditions of data set [11]: simulated intestinal fluid; cited from earlier work.
The conditions of data set [12]: extracted and partially purified from pig kidney (heat treatment, salt precipitation, HIC), cited from earlier work.
The conditions of data set [13]: cited from earlier work.
For data set [14] the following is noted: substrates at 1 mM; cited from earlier work.
Where [15] appears, read: read-out: Ki (substrate inhibition by histamine).

“Also recorded” adds a separate entry of the source. Where two headings read alike, the source gives them in different places.

Turning to `NCCc1c[nH]cn1` [histamine], the “substrate inhibition recognized for histamine concentrations” value in data set [1], in [2] (hydrolyzed food-matrix SIF 3) and in data set [2] (unhydrolyzed food-matrix SIF 3) was “greater than 12.5 mM” in each case. Moreover, the Michaelis-Menten constant (Km) is 27 µM in data set [3], 2.8 µM in [4], 500 µM in data set [5] and 600 µM in data set [6]. For the same molecule, the “substrate inhibition by histamine concentrations” value in [3] (porcine kidney DAO, 56 mg/L (0.5 mM)) is given as over 0.5 mM. The values for the Ki in data set [3] (setting [15]) and in [4] (setting [15]) were 5710 µM and 280 µM, respectively.

B1: DAO-2: second putative DAO from Y. lipolytica PO1f (Uniprot: A0A371BXN9), gene dao-2 SEQ ID NO: 3 (protein, listed as Yarrowia lipolytica)
chain: MHRLSQLATQTTAATITAGHPLDPLSPSEIEHAASIVKSQMRDSSPYRFNLITLIEPPKAELLAWEASPSSVAKPPRRAEVVLVVRGKKGVTEGRVCLTGSKVLSWSEIEGVQPILTVDDLQKVEEIVRQDPEVIKQCKLIGVDNMSQVYCDPWTIGYDERWGAERRLQQAFLYFRAHQDDSQYSHPLDFTPIYDATEQKVIFIDIPPVRRPLSKLKNSNFNPQDISKTTGYRDVKPIDVSQPEGVNFKMTGRIMEWQGFRFHVGFNYREGIVLSQISFNDHGNQRNMFHRLSLVEMVVPYGNPEHPHQRKHAFDLGEYGAGLMTNPLSLGCDCKGVIHYLDAHFSDAEGKPLTVPNAVCIHEEDNGLLFKHSDFRDEFQTSIVTRATKLILSQIFTAANYEYCVYWIFHQDGTIQLEIKLTGILNTFPCNPGEDLHGWGTEVYPGTNAHNHQHLFSLRIHPAIDSQLHPGNSVAMVDAERSPFPPGHPENLHGNGFRPKRTVFNNPIEAMTDYDGNTSRTWDFFNPKSINQYSKKPASYKLVSRECPPLLPQPGGLVWNRAGFARHHMHVVPYVDGQLYPAGRFVCQTSGKPSRGLPEWIEQCGEKANINDTDVVAYHTFGLTHFPAPEDFPLMPAEPMTLLLRPRNFFLQNPALDVPPSHARTTTEAQAASGAKVVSLTDKVSQLAFNKSCCSK
Turning to B1, the “enzyme activity towards histamine” value in [7] (recombinant Y. lipolytica PO1f_axp_dao-2 extract) is “no activity; also recorded: did not show enzyme activity”. Also, the “increase in DAO-activity versus wildtype cell extract” value in data set [7] (substrates histamine, putrescine, cadaverine, tyramine, spermidine, tryptamine) was “did not show an increase”. Further, the activity with agmatine entry in data set [8] (cell extract, shaking flask) is on record as “around 50 nkatAgmatine (14.5 mM)/LCulture”. The “increase in activity versus wildtype cell extract” value in data set [8] (substrate agmatine) turned out to be 5.5 fold.

B2: porcine DAO: DAO extracted from porcine kidney (Uniprot: Q9TRC7), prior-art comparator (protein, UniProt Q9TRC7 25-755, looked up)
Diamine oxidase …: ERSPRTPGGKAGVFADLSAQELKAVHSFLWSQKELKLEPSGTLTMAKNSVFLIEMLLPKKQHVLKFLDKGHRRPVREARAVIFFGAQEQPNVTEFAVGPLPTPRYMRDLPPRPGHQVSWASRPISKAEYALLSHKLQEATQPLRQFFRRTTGSSFGDCHEQCLTFTDVAPRGLASGQRRTWFILQRQMPGYFLHPTGLELLVDHGSTNAQDWTVEQVWYNGKFYRSPEELAQKYNDGEVDVVILEDPLAKGKDGESLPEPALFSFYQPRGDFAVTMHGPHVVQPQGPRYSLEGNRVMYGGWSFAFRLRSSSGLQILDVHFGGERIAYEVSVQEAVALYGGHTPAGMQTKYIDVGWGLGSVTHELAPDIDCPETATFLDALHHYDADGPVLYPRALCLFEMPTGVPLRRHFNSNFSGGFNFYAGLKGQVLVLRTTSTVYNYDYIWDFIFYPNGVMEAKMHATGYVHATFYTPEGLRYGTRLHTHLIGNMHTHLVNYRVDLDVAGTTNSFQTLQMELENITNPWSPRHRLVQPTLKQTRYSRERQAAFRFGQPLPKYLLITSPKENPWGHTRSYRLQLHSMADQVLPPGWQEERAVTWARYPLAVTRYRESELSSSSIYNQNDPWDPPVVFEEFLRNNENIEDEDLVAWVTVGFLHIPHSEDIPNTATPGNSVGFLLRPFNFFPEDPALASRDLVVVWPLENGSTYAQRWIPEEDQSCLKPPPFSYNGSYRPV
Consider B2, for which the “histamine concentration above which substrate inhibition occurs” value in [9] is “greater than 56 mg/L”. The results for the “in vitro reduction of histamine” value in data set [10] and in data set [10] (listed as free porcine DAO) were “Around 90%” and “about 90%”, respectively. Moreover, in data set [10] (within 5 h under in vitro conditions, about 90% reduction), the “DAO activity required for the degradation of food-relevant histamine (75 mg)” value is recorded as 50 nkat. Also, the half-life entry in data set [11] is given as “approximately 19 minutes”. For the same molecule, the “specific DAO activity” value in data set [12] is reported as 81 nkat/gProtein; in data set [12] (listed as DAO from porcine kidney), 81±1 nkat/gProtein. Moreover, the “pH of maximal DAO activity” value is on record as 7.4 in data set [13] (cadaverine as substrate, potassium phosphate buffer) and 6.3 in [13] (histamine as substrate, potassium phosphate buffer). Moreover, the “DAO activity with histamine compared to the maximal measured activity with putrescine” value in [14] is reported as 19%.

B3: human DAO: human diamine oxidase (Uniprot: P19801), prior-art comparator (protein, UniProt P19801 20-751, looked up)
Diamine oxidase …: EPSPGTLPRKAGVFSDLSNQELKAVHSFLWSKKELRLQPSSTTTMAKNTVFLIEMLLPKKYHVLRFLDKGERHPVREARAVIFFGDQEHPNVTEFAVGPLPGPCYMRALSPRPGYQSSWASRPISTAEYALLYHTLQEATKPLHQFFLNTTGFSFQDCHDRCLAFTDVAPRGVASGQRRSWLIIQRYVEGYFLHPTGLELLVDHGSTDAGHWAVEQVWYNGKFYGSPEELARKYADGEVDVVVLEDPLPGGKGHDSTEEPPLFSSHKPRGDFPSPIHVSGPRLVQPHGPRFRLEGNAVLYGGWSFAFRLRSSSGLQVLNVHFGGERIAYEVSVQEAVALYGGHTPAGMQTKYLDVGWGLGSVTHELAPGIDCPETATFLDTFHYYDADDPVHYPRALCLFEMPTGVPLRRHFNSNFKGGFNFYAGLKGQVLVLRTTSTVYNYDYIWDFIFYPNGVMEAKMHATGYVHATFYTPEGLRHGTRLHTHLIGNIHTHLVHYRVDLDVAGTKNSFQTLQMKLENITNPWSPRHRVVQPTLEQTQYSWERQAAFRFKRKLPKYLLFTSPQENPWGHKRTYRLQIHSMADQVLPPGWQEEQAITWARYPLAVTKYRESELCSSSIYHQNDPWHPPVVFEQFLHNNENIENEDLVAWVTVGFLHIPHSEDIPNTATPGNSVGFLLRPFNFFPEDPSLASRDTVIVWPRDNGPNYVQRWIPEDRDCSMPPPFSYNGTYRPV
As for B3, the “pH of maximal DAO activity” value in data set [13] (putrescine as substrate, phosphate buffer, DAO from blood serum) is 7.5.

One may read the Km as the substrate concentration at which the rate is half of its maximum.
